US20260234255A1 (Genmab, published 2026)

How the values were obtained:
[1] = molecular target: T1, cynomolgus monkey (Macaca fascicularis) CD30 (cynomolgus monkey, UniProt P28908 19-595 (human entry)); assay: flow cytometry, HEK293 cells transfected with mfCD30
T1 construct: also called mfCD30
T1 chain: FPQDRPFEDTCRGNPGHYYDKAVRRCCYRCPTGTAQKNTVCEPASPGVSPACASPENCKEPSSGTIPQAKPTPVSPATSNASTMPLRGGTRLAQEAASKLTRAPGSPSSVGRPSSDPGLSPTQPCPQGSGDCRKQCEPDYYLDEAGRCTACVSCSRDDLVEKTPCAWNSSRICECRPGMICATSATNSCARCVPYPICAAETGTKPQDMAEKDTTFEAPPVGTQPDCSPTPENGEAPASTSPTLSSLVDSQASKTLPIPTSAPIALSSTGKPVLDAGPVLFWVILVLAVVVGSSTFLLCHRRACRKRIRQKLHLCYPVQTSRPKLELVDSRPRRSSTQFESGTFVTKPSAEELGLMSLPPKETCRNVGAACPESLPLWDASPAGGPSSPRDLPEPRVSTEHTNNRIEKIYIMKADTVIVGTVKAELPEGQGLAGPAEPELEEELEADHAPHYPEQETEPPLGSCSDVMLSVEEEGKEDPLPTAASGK
Procedure: (§1) Cells (3×10⁴ cells/well) were incubated in polystyrene 96-well round-bottom plates (Thermo Scientific, cat. no. 163320) with serial dilutions of antibodies (ranging from 0.0002 to 50 μg/mL in 4-fold dilution steps) in 50 μL staining buffer at 4° C. for 30 min. Experiments were performed in technical duplicate. After washing twice in staining buffer, cells were incubated in 50 μL secondary antibody at 4° C. for 30 min. As a secondary antibody, R-PE-conjugated goat-anti-human IgG (Jackson ImmunoResearch, UK; cat. no. 109⁻¹¹⁶-098) diluted 1:200 in staining buffer was used. Cells were washed twice in staining buffer, resuspended in 30 μL staining buffer containing 0.4% EDTA and the ToPro-3 viability marker (Invitrogen, cat. no. T3605) diluted 1:10,000. Cells were analyzed on an iQue Screener (Intellicyt Corporation, USA). Binding curves were analyzed using non-linear regression (sigmoidal dose-response with variable slope) using GraphPad Prism V9.0.0 software (GraphPad Software, San Diego, CA, USA).

human CD30 [2] = molecular target: T2, human CD30 (human, UniProt P28908 19-595); assay: flow cytometry, L-428 cells (HL), range of 2 tests
T2 construct: also called huCD30; TNFRSF8
T2 sequence: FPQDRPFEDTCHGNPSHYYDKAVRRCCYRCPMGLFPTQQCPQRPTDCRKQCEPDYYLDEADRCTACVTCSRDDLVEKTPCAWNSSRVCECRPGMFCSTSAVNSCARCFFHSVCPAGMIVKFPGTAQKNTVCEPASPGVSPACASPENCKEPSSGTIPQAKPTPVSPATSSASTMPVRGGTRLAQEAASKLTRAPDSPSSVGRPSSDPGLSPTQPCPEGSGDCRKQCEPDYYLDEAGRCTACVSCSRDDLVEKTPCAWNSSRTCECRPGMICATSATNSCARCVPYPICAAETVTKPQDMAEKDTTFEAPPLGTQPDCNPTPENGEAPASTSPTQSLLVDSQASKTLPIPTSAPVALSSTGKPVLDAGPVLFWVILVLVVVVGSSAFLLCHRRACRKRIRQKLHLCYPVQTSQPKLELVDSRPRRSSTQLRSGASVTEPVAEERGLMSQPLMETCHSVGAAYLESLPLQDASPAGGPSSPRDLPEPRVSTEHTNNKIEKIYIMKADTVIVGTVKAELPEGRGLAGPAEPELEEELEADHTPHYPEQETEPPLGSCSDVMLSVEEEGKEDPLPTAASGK
Procedure: (§2) Cells (3×10⁴ cells/well) were incubated in polystyrene 96-well round-bottom plates (Greiner bio-one, cat. no. 650180) with serial dilutions of antibodies (range 0.0046 to 10 μg/mL in 3-fold dilution steps) in 50 μL staining buffer at 4° C. for 30 min. After washing twice in staining buffer, cells were incubated with 50 μL secondary antibody at 4° C. for 30 min. […] Next, cells were washed twice in staining buffer, resuspended in 100 μL staining buffer supplemented with TO-PRO-3 iodide (Thermo Fisher Scientific; cat. no. T3605; 1:8000 dilution) and analyzed on a FACSCelesta flow cytometer (BD Biosciences, USA). Live cells were gated based on FSC/SSC and absence of TOPRO-3 staining. Binding curves were analyzed by non-linear regression of log-transformed data (sigmoidal dose-response with variable slope, four parameters) using GraphPad Prism V7.02 software (GraphPad Software, San Diego, CA, USA).

human CD30 [3] = molecular target: T2, human CD30; assay: flow cytometry, L-1236 cells (HL), range of 3 tests
Procedure: as §2

human CD30 [4] = molecular target: T2, human CD30; assay: flow cytometry, L-82 cells (ALCL), range of 2 tests
Procedure: as §2

human CD30 [5] = molecular target: T2, human CD30; assay: flow cytometry, DEL cells (ALCL), average of 3 tests
Procedure: as §2

human CD30 [6] = molecular target: T2, human CD30; assay: flow cytometry, NCEB-1 cells (MCL), range of 3 tests
Procedure: as §2

human CD30 [7] = molecular target: T2, human CD30; assay: flow cytometry, L-82 cells (ALCL), average of 2 tests
Procedure: as §2

human CD30 [8] = molecular target: T2, human CD30; assay: flow cytometry, SUP-M2 cells (ALCL), average of 3 tests
Procedure: as §2

human CD30 [9] = molecular target: T2, human CD30; assay: flow cytometry, HEK293 cells transfected with human CD30
Procedure: as §1

B1: bsG1-huCD3-FEALxCD30-MDX060-FERR (bispecific antibody, human IgG1, kappa, lambda)
heavy 1: not shown
light 1: not shown
heavy 2: QVQLQQWGAGLLKPSETLSLTCAVYGGSFSAYYWSWIRQPPGKGLEWIGDINHGGGTNYNPSLKSRVTISVDTSKNQFSLKLNSVTAADTAVYYCASLTAYWGQGSLVTVSSASTKGPSVFPLAPSSKSTSGGTAALGCLVKDYFPEPVTVSWNSGALTSGVHTFPAVLQSSGLYSLSSVVTVPSSSLGTQTYICNVNHKPSNTKVDKRVEPKSCDKTHTCPPCPAPEFERGPSVFLFPPKPKDTLMISRTPEVTCVVVDVSHEDPEVKFNWYVDGVEVHNAKTKPREEQYNSTYRVVSVLTVLHQDWLNGKEYKCKVSNKALPAPIEKTISKAKGQPREPQVYTLPPSREEMTKNQVSLTCLVKGFYPSDIAVEWESNGQPENNYKTTPPVLDSDGSFFLYSRLTVDKSRWQQGNVFSCSVMHEALHNHYTQKSLSLSPG
light 2: DIQMTQSPTSLSASVGDRVTITCRASQGISSWLTWYQQKPEKAPKSLIYAASSLQSGVPSRFSGSGSGTDFTLTISSLQPEDFATYYCQQYDSYPITFGQGTRLEIKRTVAAPSVFIFPPSDEQLKSGTASVVCLLNNFYPREAKVQWKVDNALQSGNSQESVTEQDSKDSTYSLSSTLTLSKADYEKHKVYACEVTHQGLSSPVTKSFNRGEC
notes: Bispecific IgG1 made by controlled Fab-arm exchange; also called bsIgG1-huCD3-FEALxCD30-MDX060-FERR; bsG1-huCD3×CD30-MDX060
binding result [1]: binds
EC50 (human CD30 [2]): 0.174 µg/mL
EC50 (human CD30 [3]): 0.163 to 0.225 µg/mL
EC50 (human CD30 [4]): 0.184 to 0.215 µg/mL
EC50 (human CD30 [5]): 0.201 µg/mL
EC50 (human CD30 [6]): 0.118 to 0.2 µg/mL
EC50 (human CD30 [7]): 0.2 µg/mL
EC50 (human CD30 [8]): 0.167 µg/mL
EC50 (read off the curve) (human CD30 [9]): ~0.1 µg/mL
